From publication PMC9915583 (bioRxiv, 2023)

B2: GLP (recombinant, full-length, untagged) (natural protein)
chain: MRSVEQQLSIVTEAAVAPEPVRIAIAEALGLMCAEEVQASRALPGFAQAAIDGYAVRAVDVGGEKSLSQQLPVAPPEKSLPVVGEVAAGSQQPLRLQPKQAVMVHTGAPLPMLADAVLPMAWSDRGRKRVTAQRPVRSGEFVRKEGDDIQPGDIAVSAGAVLGPAQIGLLAAVGRSKVLVYPRPRMSVISVGAELVDIDRQPGLGQVYDVNSYSLAAAGREAGADVYRYGIAAGEPRRIKEIIESQMLRSEIIVITGAVGGAGSAGVRQVLNELGDIDTERVAMHPGSVQGFGLLGENKIPCFLLPSNPVASLVIFETFVRPVVRMSLGKSNAARRVVRARALNHVVSVAGRKGFIRSRLMRDAETQDYLVEALGGATGAPSHLLAGLSEANGMIRIPEDVTEIRPGDVVDVIFLAQGR

How the values were obtained:
[1] = target: Biotinylated His-GLPR (C. glutamicum ATCC 13032); test: BLI
[2] = target: B2; test: BLI
His-SUMO-FtsZ = target: T1, His-SUMO-FtsZ (C. glutamicum, UniProt P94337 1-442); test: BLI
T1 sequence: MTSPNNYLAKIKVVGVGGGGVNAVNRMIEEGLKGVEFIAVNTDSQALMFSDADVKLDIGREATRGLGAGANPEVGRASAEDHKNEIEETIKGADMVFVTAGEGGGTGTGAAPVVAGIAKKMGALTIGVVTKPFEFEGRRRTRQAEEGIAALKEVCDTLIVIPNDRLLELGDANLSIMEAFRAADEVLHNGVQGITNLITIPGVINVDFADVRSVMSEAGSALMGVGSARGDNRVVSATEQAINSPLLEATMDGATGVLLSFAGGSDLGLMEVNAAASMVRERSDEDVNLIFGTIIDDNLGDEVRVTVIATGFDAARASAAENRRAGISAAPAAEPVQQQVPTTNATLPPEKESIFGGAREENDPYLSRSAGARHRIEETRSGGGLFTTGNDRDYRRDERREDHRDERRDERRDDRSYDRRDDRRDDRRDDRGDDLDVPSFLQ

crystal structure = target: the molecule itself; test: crystal structure

In the case of “Wag31_(1–61) (N-terminal DivIVA domain of Wag31) (domain or fragment)”, the Kd [1] is reported as 14.9 µM.

With “Wag31 (recombinant, full-length) (natural protein)” the Kd [1] was 43.4 µM.

B1: GLPR, C-terminal His-tagged (receptor)
chain: MLHVSGILVIGLIVVVWLVVLAPLLLRGQKPIAKAGEAFDDTRVISEGGSNIPSPRRPGLSSAQLDDEEDTDDVDDDYEIVDSPSIFRPRKEEPVEEDLDTDVELEEDIEVSLETDDYVEPAPVVEVSQEWNVEDHYELDDSYDTPLDHLHPAARARAYEDFQEHQPEQQPEVEEFDADDELTEEDVAFAQRRRGRGYYDPEADREFAASQYVRRQRTLLGLAATVVISVILGFVFGGWVWGLPAVALAATALYLMALRSQVREENALRARRIRRLRRSRMGVRNSEDLPSRLRRPGAVVLELDDESPDFEGLPTVAMPEEPYYEEPRRNIRHLGQRRVS
B1 showed a Kd [2] of 0.0055 µM.

B2 was tested, and the Kd (His-SUMO-FtsZ) was 4.7 µM and the “stoichiometry N” value (crystal structure) was 2.
